Experiment [1] concerns the target RACK1, receptor of activated C kinase (human, UniProt P63244 1-317). In words: Copine-III IP from SKBr3 lysates, relative quantification by MRM mass spectrometry.
For experiment [2], the target named is T1, ErbB2 (human, UniProt P04626 23-1255, tyrosine-phosphorylated (active) receptor after HRG stimulation; sites not resolved in the IP and FRET experiments).
T1 construct: whole, on cells; Endogenous receptor, tested in fixed cells (FRET) and in cell lysates (co-IP); also called HER2
In words: ErbB2 immunoprecipitation from SKBr3 and T47D cells.

B1: Copine III (other)
chain: MAAQCVTKVALNVSCANLLDKDIGSKSDPLCVLFLNTSGQQWYEVERTERIKNCLNPQFSKTFIIDYYFEVVQKLKFGVYDIDNKTIELSDDDFLGECECTLGQIVSSKKLTRPLVMKTGRPAGKGSITISAEEIKDNRVVLFEMEARKLDNKDLFGKSDPYLEFHKQTSDGNWLMVHRTEVVKNNLNPVWRPFKISLNSLCYGDMDKTIKVECYDYDNDGSHDLIGTFQTTMTKLKEASRSSPVEFECINEKKRQKKKSYKNSGVISVKQCEITVECTFLDYIMGGCQLNFTVGVDFTGSNGDPRSPDSLHYISPNGVNEYLTALWSVGLVIQDYDADKMFPAFGFGAQIPPQWQVSHEFPMNFNPSNPYCNGIQGIVEAYRSCLPQIKLYGPTNFSPIINHVARFAAAATQQQTASQYFVLLIITDGVITDLDETRQAIVNASRLPMSIIIVGVGGADFSAMEFLDGDGGSLRSPLGEVAIRDIVQFVPFRQFQNAPKEALAQCVLAEIPQQVVGYFNTYKLLPPKNPATKQQKQ
notes: Endogenous protein of the human breast tumor cell lines T47D and SKBr3, tested in cell lysates (pull-down, IP) or in fixed cells (FRET); also called CPNE3; CPN3
In the case of B1, the “fold enrichment in Copine-III IPs vs. control IPs” value in experiment [1] came out at 1.5 fold. In experiment [2], the binding result is reported as “binds”.

Source of the values: patent publication EP2292266A1 (Novartis Forschungsstiftung, Zweigniederlassung, dated 2011).
